In US20020026033A1 (BOARD OF REGENTS OF THE UNIVERSITY OF OKLAHOMA, published 2002) one finds Kd data, which are given here for 1 molecule.

A word on the Kd: it is the constant that tells how readily two partners part at equilibrium.

In the test the target is T1, recombinant soluble P-selectin (sPS) (UniProt P16109 42-771, limits assumed).
T1 construct: Neither the residues nor the species are stated
T1 sequence (looked up): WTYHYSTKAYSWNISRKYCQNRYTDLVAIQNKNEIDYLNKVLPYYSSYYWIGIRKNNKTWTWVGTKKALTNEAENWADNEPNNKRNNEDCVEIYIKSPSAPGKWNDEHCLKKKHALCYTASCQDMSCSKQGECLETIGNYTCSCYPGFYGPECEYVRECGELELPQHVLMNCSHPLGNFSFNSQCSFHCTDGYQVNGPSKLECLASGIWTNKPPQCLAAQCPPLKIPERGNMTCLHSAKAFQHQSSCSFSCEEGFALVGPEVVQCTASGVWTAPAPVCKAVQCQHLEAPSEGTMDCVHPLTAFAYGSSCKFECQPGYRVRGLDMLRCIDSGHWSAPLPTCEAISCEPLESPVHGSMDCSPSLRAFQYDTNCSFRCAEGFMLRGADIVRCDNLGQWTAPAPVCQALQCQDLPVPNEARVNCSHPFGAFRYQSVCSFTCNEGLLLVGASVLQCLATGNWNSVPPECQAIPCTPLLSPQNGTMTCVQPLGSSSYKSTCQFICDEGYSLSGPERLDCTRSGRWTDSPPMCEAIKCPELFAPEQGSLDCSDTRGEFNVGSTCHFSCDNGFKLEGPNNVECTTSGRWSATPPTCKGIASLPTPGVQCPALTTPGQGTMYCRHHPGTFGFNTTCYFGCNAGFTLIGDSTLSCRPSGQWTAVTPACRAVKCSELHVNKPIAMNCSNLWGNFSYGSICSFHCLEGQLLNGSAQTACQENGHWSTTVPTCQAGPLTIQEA
The test can be described thus: equilibrium gel filtration; fluid-phase sPS (25-1000 pmol) on columns equilibrated with 35SO3-GSP-6 in Ca2+-containing buffer. How it is done:
Equilibrium gel filtration experiments were conducted in a Sephadex G-75 column (0.5×10 cm, 2 ml) equilibrated with 4 ml of 20 mM MOPS, pH 7.5, containing 150 mM NaCl, 2 mM CaCl₂, 2 mM MgCl₂, and 0.02% NaN₃ (buffer A), and ³⁵SO₃-GSP-6 (10,000 cpm/ml, specific activity 1700 cpm/pmol). Different amounts of soluble P-selectin (sPS) (25-1000 pmol) (Ushiyama et al., J. Biol. Chem., 268:15229-15237, 1993) were preincubated for 30-60 min in 120 μl of buffer A containing ³⁵SO₃-GSP-6 and applied to the column. Samples were eluted with buffer A (including ³⁵SO₃-GSP-6), and 140 μl fractions were collected at a flow rate of 70 μl/min. Radioactivity in the fractions was determined by liquid scintillation counting. Control experiments to test inhibitors of binding between sPS and GSP-6 were performed using 400 pmol of sPS and 5,000 cpm/ml of ³⁵SO₃-GSP-6. The EDTA concentration was 1 mM in 20 mM MOPS, pH 7.5, 150 mM NaCl, 0.02% NaN₃. Anti-P-selectin monoclonal antibodies (G1 and S12) (800 pmol each) were preincubated for 30 min with sPS in buffer A before ³⁵SO₃-GSP-6 was added. Elution was performed by using buffer A with ³⁵SO₃-GSP-6.
The dissociation constant (Kd) for binding of GSP-6 to soluble sPS was determined using an equilibrium gel filtration technique. […]
(In general: In gel filtration, larger molecules generally elute earlier.)

Ends that are not written are not given here. * marks the point of attachment. sulfate = O=S(=O)(O)*

B1: glycosulfopeptide-6 (GSP-6) (peptide)
peptide: GQATEY(sulfate)EY(sulfate)LDY(sulfate)DFLPETEPPEML
modifications: also: core-2 O-glycan with sialyl Lewis x on a Thr, position not given here
notes: range 42-63; Synthetic glycosulfopeptide; also called 35SO3-GSP-6; 35SO3-glycosulfopeptide-6
Turning to B1, the Kd was about 350 nM.
